Assay results from patent US20170240629A1 (Hoffmann-La Roche, published 2017).

Assays:
human PDGF-BB [1] = molecular target: T1, human PDGF-BB (human, UniProt P01127 82-190); assay: ELISA, antigen coated
T1 construct: also called huPDGF-BB
Procedure: (§1) The binding analysis was carried out using an enzyme-linked immunosorbent assay (ELISA)-based technology. […] The EC₅₀ was calculated with a four parameter logistic model using GraphPad Prism 6.0 software.

cynomolgus PDGF-BB [2] = molecular target: T2, cynomolgus PDGF-BB (cynomolgus, UniProt A0A2K5UX81 82-190); assay: ELISA, antigen coated
T2 construct: also called cynPDGF-BB
Procedure: as §1

murine PDGF-BB = molecular target: T3, murine PDGF-BB (murine, UniProt P31240 82-190); assay: ELISA, antigen coated
T3 construct: also called muPDGF-BB
T3 sequence (P31240 82-190 limits assumed): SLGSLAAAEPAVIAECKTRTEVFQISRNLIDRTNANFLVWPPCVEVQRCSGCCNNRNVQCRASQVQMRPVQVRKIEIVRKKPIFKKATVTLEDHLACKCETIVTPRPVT
Procedure: as §1

rat PDGF-BB = rat PDGF-BB (rat, UniProt Q05028 74-182); assay: ELISA, antigen coated
rat PDGF-BB, sequence (Q05028 74-182 limits assumed): as the sequence (P31240 82-190 limits assumed) above, with I83V, I102V counted along it
Procedure: as §1

human PDGF-BB [3] = molecular target: T1, human PDGF-BB; assay: competition ELISA; biotinylated human PDGF-BB with antibody on coated Fc-tagged PDGF-BB receptor (competitor)
Procedure: The IC₅₀ was calculated with a four parameter logistic model using GraphPad Prism 6.0 software.

human PDGF-BB [4] = molecular target: T1, human PDGF-BB; assay: SPR (BIAcore B4000); PDGF-BB coupled on C1 chip, antibody injected; apparent value
Procedure: (§2) The binding analysis was carried out using a surface plasmon resonance spectroscopy-based technology applying a BIAcore B4000 system (GE Healthcare). […] Utilizing a read out time of 180 sec. association phase and 600 sec. dissociation phase the apparent kₐ and apparent kd were calculated. The apparent KD (avidity) was calculated using the BlAcore T200 v2.0 fitting software.

cynomolgus PDGF-BB [5] = molecular target: T2, cynomolgus PDGF-BB; assay: as above
Procedure: as §2

human PDGF-BB [6] = molecular target: T1, human PDGF-BB; assay: cell-based or functional assay
human PDGF-BB [7] = molecular target: T1, human PDGF-BB; assay: SPR (BIAcore B4000); PDGF-BB coupled on C1 chip, antibody injected; apparent KD (avidity)
Procedure: as §2

cynomolgus PDGF-BB [8] = molecular target: T2, cynomolgus PDGF-BB; assay: as above
Procedure: as §2

human PDGF-BB [9] = molecular target: T1, human PDGF-BB; assay: SPR; apparent KD** of the IgG
human PDGF-BB [10] = molecular target: T1, human PDGF-BB; assay: SPR; IgG
human PDGF-BB [11] = molecular target: T1, human PDGF-BB; assay: SPR (BIAcore T200) kinetic screening; PDGF-BB coupled on C1 chip, antibody injected
human PDGF-BB [12] = molecular target: T1, human PDGF-BB; assay: cell-based or functional assay; remark: listed apart in the source
human PDGF-BB [13] = molecular target: T1, human PDGF-BB; assay: SPR (BIAcore T200); PDGF-BB coupled on CM3 chip, Fab injected
human PDGF-BB [14] = molecular target: T1, human PDGF-BB; assay: SPR; apparent KD* of the Fab
human PDGF-BB [15] = molecular target: T1, human PDGF-BB; assay: SPR; Fab
human PDGF-BB [16] = molecular target: T1, human PDGF-BB; assay: SPR (BIAcore T200); PDGF-BB coupled on CM3 chip, antibody injected (Example 52); set-up: t½: unit not given here

T2 sequence (A0A2K5UX81 entry or part of it): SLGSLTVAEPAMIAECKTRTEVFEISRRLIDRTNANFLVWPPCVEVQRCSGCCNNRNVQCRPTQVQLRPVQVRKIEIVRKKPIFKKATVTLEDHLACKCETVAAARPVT
T1 sequence (P01127 82-190 limits assumed): as the sequence (A0A2K5UX81 entry or part of it) above, with V7I counted along it

Row | Binder | EC50 (human PDGF-BB [1]) | EC50 (cynomolgus PDGF-BB [2]) | EC50 (murine PDGF-BB) | EC50 (rat PDGF-BB) | IC50 (human PDGF-BB [3]) | koff (human PDGF-BB [4]) | kon (human PDGF-BB [4]) | koff (cynomolgus PDGF-BB [5]) | kon (cynomolgus PDGF-BB [5]) | Balb-C3T3 Proliferation, IC50 (human PDGF-BB [6]) | Pericytes Migration, IC50 (human PDGF-BB [6]) | Pericytes Proliferation, IC50 (human PDGF-BB [6]) | Kd (human PDGF-BB [7]) | Kd (cynomolgus PDGF-BB [8]) | Kd (human PDGF-BB [9]) | T½ (human PDGF-BB [10]) | koff (human PDGF-BB [11]) | t½ (human PDGF-BB [11]) | IC50 Proliferation 3T3 (human PDGF-BB [12]) | Kd (human PDGF-BB [13]) | other results
1 | antibody 0085 (antibody, V domains shown, Human antibody from a human Ig locus transgenic rabbit) VH: EVQLVESGGGLVQPGGSLRLSCAASGFTFSSYWMSWVRQAPEKGLEWVSTISDGGGLTYYADSVKGRFTISRDNAKNSLYLQMNSLRAEDTAVYYCAESGGYTDWLFGYWGQGTLVTVSS VL: not shown | 0.00755 µg/mL | 0.0153 µg/mL | 0.025 µg/mL | 0.016 µg/mL | 0.0178 µg/mL | 4.4e-05 s⁻¹ | 930000 M⁻¹ s⁻¹ | 4.52e-05 s⁻¹ | 940000 M⁻¹ s⁻¹ | 0.06 nM | 0.15 nM | 0.11 nM | 0.0476 nM | 0.0478 nM | 0.023 nM | 146 min | 0.000102 s⁻¹ | 114 min | 0.0318 µg/mL |  | 
2 | antibody 0086 (antibody, V domains shown, Human antibody from a human Ig locus transgenic rabbit) VH: EVQLVESGGGLVQPGGSLRLSCAASGFTFSSYWMSWVRQAPEKGLEWVSTISDGGGLTYYADSVKGRFTISRDNAKNSLYLQMNSLRAEDTAVYYCAESGGYTDWLFGYWGQGTLVTVSS VL: not shown | 0.012 µg/mL | 0.0162 µg/mL | 0.0141 µg/mL | 0.0106 µg/mL | 0.0117 µg/mL | 2.3e-05 s⁻¹ | 1.04e+06 M⁻¹ s⁻¹ | 1.84e-05 s⁻¹ | 1.04e+06 M⁻¹ s⁻¹ | 0.11 nM | 0.09 nM | 0.09 nM | 0.0218 nM | 0.0178 nM | 0.03 nM | 41 min | 7.93e-05 s⁻¹ | 146 min | 0.056 µg/mL |  | 
3 | antibody 0107 (Fab, V domains shown) VH: EVQLVESGGGLVQPGGSLRLSCAASGFTFSSYWMSWVRQAPEKGLEWVSTISDGGGLTYYADSVKGRFTISRDNAKNSLYLQMNSLRAEDTAVYYCAESGGYTDWLFGYWGQGTLVTVSS VL: not shown |  |  |  |  |  |  |  |  |  |  |  |  |  |  |  |  |  |  |  | 2 nM | koff (human PDGF-BB [13]): 0.000362 s⁻¹; kon (human PDGF-BB [13]): 195000 M⁻¹ s⁻¹; t½ (human PDGF-BB [13]): 31.9 min; Kd (human PDGF-BB [14]): 2 nM; T½ (human PDGF-BB [15]): 31.9 min
4 | antibody 0106 (Fab, V domains shown) VH: EVQLVESGGGLVQPGGSLRLSCAASGFTFSSYWMSWVRQAPEKGLEWVSTISDGGGLTYYADSVKGRFTISRDNAKNSLYLQMNSLRAEDTAVYYCAESGGYTDWLFGYWGQGTLVTVSS VL: not shown |  |  |  |  |  |  |  |  |  |  |  |  |  |  |  |  |  |  |  | 2 nM | koff (human PDGF-BB [13]): 0.000374 s⁻¹; kon (human PDGF-BB [13]): 202000 M⁻¹ s⁻¹; t½ (human PDGF-BB [13]): 30.9 min; Kd (human PDGF-BB [14]): 2 nM; T½ (human PDGF-BB [15]): 30.9 min; Kd (human PDGF-BB [16]): 1 nM; koff (human PDGF-BB [16]): 0.000291 s⁻¹; kon (human PDGF-BB [16]): 294000 M⁻¹ s⁻¹; t½ (human PDGF-BB [16]): 40
